Experimental findings from article PMC6101483, “Investigating mycobacterial topoisomerase I mechanism from the analysis of metal and DNA substrate interactions at the active site” are described below.

The target in this series is T1, MtbTOP1-704t (Mycobacterium tuberculosis, UniProt P9WG49 2-704).
T1 sequence: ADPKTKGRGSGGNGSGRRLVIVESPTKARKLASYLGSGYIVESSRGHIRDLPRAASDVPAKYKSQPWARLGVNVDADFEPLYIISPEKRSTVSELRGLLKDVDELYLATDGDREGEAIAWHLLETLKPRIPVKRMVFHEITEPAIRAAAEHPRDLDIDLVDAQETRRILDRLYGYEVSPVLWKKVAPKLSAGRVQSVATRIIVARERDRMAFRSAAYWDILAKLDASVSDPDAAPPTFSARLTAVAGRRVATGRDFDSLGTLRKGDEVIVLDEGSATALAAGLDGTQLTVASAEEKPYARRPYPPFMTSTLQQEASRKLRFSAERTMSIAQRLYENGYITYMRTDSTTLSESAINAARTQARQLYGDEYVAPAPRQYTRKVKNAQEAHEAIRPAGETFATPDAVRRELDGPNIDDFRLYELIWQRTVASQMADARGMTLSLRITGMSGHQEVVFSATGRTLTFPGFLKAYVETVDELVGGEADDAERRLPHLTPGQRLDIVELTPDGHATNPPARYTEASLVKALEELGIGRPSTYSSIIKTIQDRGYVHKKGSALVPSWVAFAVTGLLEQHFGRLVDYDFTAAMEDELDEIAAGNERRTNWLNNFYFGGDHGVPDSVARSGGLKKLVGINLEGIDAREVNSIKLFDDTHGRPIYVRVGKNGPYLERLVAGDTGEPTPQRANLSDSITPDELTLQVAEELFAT
The experiment in a line: X-ray crystallography; no metal at active site; 2.42 A. Conditions: protein: recombinant; tags: His6-Mocr removed by TEV; N-terminal SNA remains; single strand.

Regarding TTCCGCTTGAC (ssDNA) [MTS2-11], the binding result is “binds”.
